Consider 71 sequences from the Immune Epitope Database (IEDB).

A word on the Kd: it is the free concentration of one partner at which half of the binding sites on the other are occupied at equilibrium, for simple one-to-one binding.

For this assay, the target named is HLA-A*02:01. Nature of the assay: IEDB peptide-MHC binding, purified MHC/competitive/radioactivity; filed as Kd, often an IC50 or EC50 that approximates it; ≥ and ≤ were set here for values at or beyond the usual limits of such assays. The settings on record: source organism: Mycobacterium tuberculosis.
In the case of AIAWGAWGEV, the Kd stood at 312 nM.

On to AIYHPQQFV, for which the equilibrium dissociation constant (Kd) is 313 nM. With ALLSDWLPA, the equilibrium dissociation constant (Kd) was determined as 94.3 nM.

As to ALVLLMLPVV, the dissociation constant (Kd) was 6.8 nM. For the sequence ALYLLDGLRA, the Kd is 263 nM. Turning to AMALLRLPLV, the dissociation constant Kd was found to be 5.1 nM. For AMKADIQHV the value was 167 nM.

For the sequence AMLQDMAIL, the Kd came to 98 nM. Consider ATYDKGILTV, for which the Kd turned out to be 156 nM. Take AVHDTLFYCV: the equilibrium dissociation constant (Kd) turned out to be 104 nM.

As to FLLADERVRV, the equilibrium dissociation constant (Kd) stood at 116 nM. For FLLPDAQSI the value was 385 nM; for FLMPVEDVFI, 3.3 nM; for FLTCDANLAV, 104 nM. For FMSLAGFVRM, the Kd was found to be 116 nM. The value for FVVALIPLV was 7.6 nM. With GIVSGILLSI, the Kd came to 152 nM. With GLAGTVLRFV, the Kd was 109 nM. With GLFLTTEAVV, the Kd is 238 nM. In the case of GLGGLGLFFA, the Kd came out at 89.2 nM.

Consider GLMTAVYLV, for which the dissociation constant Kd came out at 8.9 nM. With GLVDFVKHI, the Kd was found to be 217 nM. Regarding GLYGAQYDV, the dissociation constant Kd turned out to be 250 nM. For the sequence GLYRQWALA, the dissociation constant (Kd) amounted to 185 nM. Regarding GLYYLTTEV, the Kd came out at 20.8 nM. In the case of ILLSIARVV, the Kd was 454 nM. For ILSSLGLPV the value was 50 nM. On to KIFMLVTAVV, for which the equilibrium dissociation constant (Kd) came out at 417 nM. In the case of KLTADGVLTA, the Kd is 200 nM. For LALVLLMLPV, the dissociation constant Kd was 333 nM. For LLAAGVADPV the value was 217 nM; for LLACAVIHA, 250 nM; for LLATVFKLTA, 250 nM.

Take LLCCSGVATA: the Kd was 152 nM. Consider LLFLGVVFL, for which the Kd was 50 nM. LLFRFMRPL: the Kd was 35.7 nM.

On to LLFRFMRPLI, for which the Kd stood at 83.3 nM.

For LLGSFELTGI, the Kd was 26 nM. On to LLLDVTPLSL, for which the Kd stood at 17 nM. The value for LLLETSWEAI was 106 nM. The value for LLPLGYPFV was 333 nM; that for LLWQDPVPA was 45.4 nM; that for LMIGTAAAVV was 54 nM. LMLPGMNGI: the dissociation constant Kd worked out at 238 nM. In the case of MALLRLPLV, the Kd came out at 52.6 nM. Turning to MLASTLTDA, the Kd is 250 nM. Turning to MLATDLSLRV, the Kd worked out at 109 nM. In the case of MLGNAPSVV, the equilibrium dissociation constant (Kd) turned out to be 227 nM. As for MLQDMAILT, the Kd came to 167 nM. The value for MTYAAPLFV was 13.8 nM; that for RIANGMGATV was 385 nM. Take RLLDDTPEV: the Kd was determined as 96.1 nM. For RLMIGTAAA, the Kd was 227 nM. Take RLQPQVGWEV: the dissociation constant (Kd) turned out to be 178 nM. For RMPAVTDLV, the Kd turned out to be 125 nM. Turning to RMSRVTTFTV, the Kd turned out to be 75.5 nM. In the case of SLAGFVRML, the Kd is 111 nM. For SLLEIGEGV the value was 98 nM; for SLLEIGEGVV, 50 nM; for SLYFGGICV, 10.6 nM.

In the case of SLYFGGICVI, the Kd was 167 nM. Take TVLRFVPPL: the dissociation constant (Kd) was determined as 76.9 nM. The value for VLLEDGGVEV was 333 nM; that for VLLLDVTPL was 50 nM; that for WLLIDTSNA was 357 nM.

Turning to WMAETTLGRV, the Kd was determined as 294 nM. For YLLALRYLA the value was 10 nM.

YLSEGDMAA: the Kd worked out at 294 nM. YLSQIAVLL: the Kd was found to be 12.1 nM. As for YLYVHSPAL, the dissociation constant Kd is 5.4 nM. Take YTYKWETFL: the Kd stood at 29 nM.
